Measurements published in PMC2680354 (Molecular cell, 2008).

Molecular target: Arp2/3 complex (UniProt P61158 1-418)
Assay: fluorescence polarisation

Binder | Kd [nM]
cortactin NtA (peptide) MWKASAGHAVSITQDDGGADDWETDPDFVNDVSEKEQRWGAKTVQGSGHQEHINIHKLRENVFQEHQTLKEKELETGPKASHGY | 17
chemically crosslinked WASP VCA (xlWASP VCA) (other, chemically crosslinked to the second copy (crosslinker and site not shown)) GGRGALLDQIRQGIQLNKTPGAPESSALQPPPQSSEGLVGALMHVMQKRSRAIHSSDEGEDQAGDEDEDDEWDD | 70
